# Results taken from patent US12467929.
# Columns and labels:
# [1] = biological target: recombinant UBE3A protein (Homo sapiens (Human)) (UniProt Q05086); test: 2-step Simoa; capture GTX; UBE3A 1 ng/ml
# [2] = biological target: recombinant UBE3A protein (Homo sapiens (Human)) (UniProt Q05086); test: 3-step Simoa; capture GTX; UBE3A 1 ng/ml
# [3] = biological target: recombinant UBE3A protein (Homo sapiens (Human)) (UniProt Q05086); test: 2-step Simoa; capture GTX; UBE3A 10 ng/ml
# [4] = biological target: recombinant UBE3A protein (Homo sapiens (Human)) (UniProt Q05086); test: 3-step Simoa; capture GTX; UBE3A 10 ng/ml
# [5] = biological target: recombinant UBE3A protein (Homo sapiens (Human)) (UniProt Q05086); test: 2-step Simoa; capture GTX; UBE3A 0.1 ng/ml
# [6] = biological target: recombinant UBE3A protein (Homo sapiens (Human)) (UniProt Q05086); test: 2-step Simoa; capture Novus; UBE3A 1 ng/ml
# [7] = biological target: recombinant UBE3A protein (Homo sapiens (Human)) (UniProt Q05086); test: 3-step Simoa; capture GTX; UBE3A 0.1 ng/ml
# [8] = biological target: recombinant UBE3A protein (Homo sapiens (Human)) (UniProt Q05086); test: 3-step Simoa; capture Novus; UBE3A 1 ng/ml
# [9] = biological target: recombinant UBE3A protein (Homo sapiens (Human)) (UniProt Q05086); test: 2-step Simoa; capture Novus; UBE3A 10 ng/ml
# [10] = biological target: recombinant UBE3A protein (Homo sapiens (Human)) (UniProt Q05086); test: 3-step Simoa; capture GTX; UBE3A 0.01 ng/ml
# [11] = biological target: recombinant UBE3A protein (Homo sapiens (Human)) (UniProt Q05086); test: 3-step Simoa; capture Novus; UBE3A 10 ng/ml
# [12] = biological target: recombinant UBE3A protein (Homo sapiens (Human)) (UniProt Q05086); test: 3-step Simoa; capture MS 3E5; UBE3A 1 ng/ml
# [13] = biological target: recombinant UBE3A protein (Homo sapiens (Human)) (UniProt Q05086); test: 2-step Simoa; capture GTX; UBE3A 0.01 ng/ml
# [14] = biological target: recombinant UBE3A protein (Homo sapiens (Human)) (UniProt Q05086); test: 2-step Simoa; capture MS 3E5; UBE3A 1 ng/ml
# [15] = biological target: recombinant UBE3A protein (Homo sapiens (Human)) (UniProt Q05086); test: 2-step Simoa; capture Novus; UBE3A 0.1 ng/ml
# [16] = biological target: recombinant UBE3A protein (Homo sapiens (Human)) (UniProt Q05086); test: 3-step Simoa; capture Novus; UBE3A 0.1 ng/ml
# [17] = biological target: recombinant UBE3A protein (Homo sapiens (Human)) (UniProt Q05086); test: 3-step Simoa; capture MS 3E5; UBE3A 10 ng/ml
# [18] = biological target: recombinant UBE3A protein (Homo sapiens (Human)) (UniProt Q05086); test: 2-step Simoa; capture MS 3E5; UBE3A 10 ng/ml
# [19] = biological target: recombinant UBE3A protein (Homo sapiens (Human)) (UniProt Q05086); test: 2-step Simoa; capture Novus; UBE3A 0.01 ng/ml
# [20] = biological target: recombinant UBE3A protein (Homo sapiens (Human)) (UniProt Q05086); test: 3-step Simoa; capture Novus; UBE3A 0.01 ng/ml
# [21] = biological target: recombinant UBE3A protein (Homo sapiens (Human)) (UniProt Q05086); test: 3-step Simoa; capture MS 3E5; UBE3A 0.1 ng/ml
# [22] = biological target: recombinant UBE3A protein (Homo sapiens (Human)) (UniProt Q05086); test: 2-step Simoa; capture MS 3E5; UBE3A 0.1 ng/ml
# [23] = biological target: recombinant UBE3A protein (Homo sapiens (Human)) (UniProt Q05086); test: 2-step Simoa; capture MS 3E5; UBE3A 0.01 ng/ml
# [24] = biological target: recombinant UBE3A protein (Homo sapiens (Human)) (UniProt Q05086); test: 3-step Simoa; capture MS 3E5; UBE3A 0.010 ng/ml
# Sequence of UniProt Q05086 (Q05086 whole entry): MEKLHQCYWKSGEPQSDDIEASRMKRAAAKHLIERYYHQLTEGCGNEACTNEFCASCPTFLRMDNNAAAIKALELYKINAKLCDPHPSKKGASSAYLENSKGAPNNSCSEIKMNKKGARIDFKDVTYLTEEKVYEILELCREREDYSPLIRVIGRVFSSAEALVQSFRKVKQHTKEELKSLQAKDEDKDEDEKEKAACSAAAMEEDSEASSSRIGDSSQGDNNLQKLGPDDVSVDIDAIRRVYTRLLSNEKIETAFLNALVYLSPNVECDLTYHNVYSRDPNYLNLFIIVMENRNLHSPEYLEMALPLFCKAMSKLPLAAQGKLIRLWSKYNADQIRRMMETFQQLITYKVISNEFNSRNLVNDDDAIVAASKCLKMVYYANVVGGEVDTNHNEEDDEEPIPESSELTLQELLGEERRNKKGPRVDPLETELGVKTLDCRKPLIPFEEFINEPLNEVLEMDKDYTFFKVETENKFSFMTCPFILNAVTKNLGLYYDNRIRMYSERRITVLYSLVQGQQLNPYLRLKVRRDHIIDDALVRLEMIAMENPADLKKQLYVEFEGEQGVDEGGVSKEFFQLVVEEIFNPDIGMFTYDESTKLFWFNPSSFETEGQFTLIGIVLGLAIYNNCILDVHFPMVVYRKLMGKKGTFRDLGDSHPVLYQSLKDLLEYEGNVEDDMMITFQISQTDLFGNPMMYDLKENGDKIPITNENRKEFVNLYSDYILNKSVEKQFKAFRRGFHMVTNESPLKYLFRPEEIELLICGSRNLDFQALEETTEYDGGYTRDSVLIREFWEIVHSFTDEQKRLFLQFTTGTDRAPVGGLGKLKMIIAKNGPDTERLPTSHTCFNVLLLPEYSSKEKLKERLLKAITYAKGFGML
substance,measurement,setting,value
"2F6 (WH0007337M1-100 ug, Millipore-Sigma) (antibody)",AEB1,[1],0.0965
same,AEB2,[1],0.095
same,Ave AEB,[1],0.0957
same,Signal to Background,[1],1.04
same,AEB1,[2],0.0409
same,AEB2,[2],0.0476
same,Ave AEB,[2],0.0443
same,Signal to Background,[2],1
same,AEB1,[3],0.109
same,AEB2,[3],0.109
same,Ave AEB,[3],0.109
same,Signal to Background,[3],1.19
same,AEB1,[4],0.047
same,AEB2,[4],0.0463
same,Ave AEB,[4],0.0466
same,Signal to Background,[4],1.05
same,AEB1,[5],0.0906
same,AEB2,[5],0.0965
same,Ave AEB,[5],0.0936
same,Signal to Background,[5],1.02
same,AEB1,[6],0.048
same,AEB2,[6],0.0444
same,Ave AEB,[6],0.0462
same,Signal to Background,[6],0.93
same,AEB1,[7],0.0432
same,AEB2,[7],0.0414
same,Ave AEB,[7],0.0423
same,Signal to Background,[7],0.96
same,AEB1,[8],0.0277
same,AEB2,[8],0.024
same,Ave AEB,[8],0.0259
same,Signal to Background,[8],1.08
same,AEB1,[9],0.0475
same,AEB2,[9],0.045
same,Ave AEB,[9],0.0462
same,Signal to Background,[9],0.92
same,AEB1,[10],0.043
same,AEB2,[10],0.0459
same,Ave AEB,[10],0.0445
same,Signal to Background,[10],1.01
same,AEB1,[11],0.0249
same,Ave AEB,[11],0.0249
same,Signal to Background,[11],1.04
same,AEB1,[12],0.009
same,AEB2,[12],0.0088
same,Ave AEB,[12],0.0089
same,Signal to Background,[12],1.17
same,AEB1,[13],0.0965
same,AEB2,[13],0.0944
same,Ave AEB,[13],0.0955
same,Signal to Background,[13],1.04
same,AEB1,[14],0.0234
same,AEB2,[14],0.0226
same,Ave AEB,[14],0.023
same,Signal to Background,[14],1.39
same,AEB1,[15],0.047
same,AEB2,[15],0.0451
same,Ave AEB,[15],0.046
same,Signal to Background,[15],0.93
same,AEB1,[16],0.0269
same,AEB2,[16],0.0251
same,Ave AEB,[16],0.026
same,Signal to Background,[16],1.09
same,AEB1,[17],0.0203
same,AEB2,[17],0.0195
same,Ave AEB,[17],0.0199
same,Signal to Background,[17],2.62
same,AEB1,[18],0.0582
same,AEB2,[18],0.0565
same,Ave AEB,[18],0.0574
same,Signal to Background,[18],3.46
same,AEB1,[19],0.0511
same,AEB2,[19],0.0431
same,Ave AEB,[19],0.0471
same,Signal to Background,[19],0.95
same,AEB1,[20],0.0221
same,AEB2,[20],0.0242
same,Ave AEB,[20],0.0232
same,Signal to Background,[20],0.97
same,AEB1,[21],0.0078
same,AEB2,[21],0.0073
same,Ave AEB,[21],0.0075
same,Signal to Background,[21],0.99
same,AEB1,[22],0.0191
same,AEB2,[22],0.018
same,Ave AEB,[22],0.0186
same,Signal to Background,[22],1.12
same,AEB1,[23],0.0177
same,AEB2,[23],0.016
same,Ave AEB,[23],0.0168
same,Signal to Background,[23],1.01
same,AEB1,[24],0.0052
same,AEB2,[24],0.0068
same,Ave AEB,[24],0.006
same,Signal to Background,[24],0.792
